Results reported in patent US20240228596A1.

Molecular target: SARS-COV-2 Wuhan WT Spike_del18 on VSV-delG pseudotyped particles (SARS-COV-2) (UniProt P0DTC2)
Assay: cell-based or functional assay

Substance: VHH72-5mut-Fc (VHH72_h1_E1D_R27L_E31D_Y32I_S56G_L97A-10xGS-hIgG1_EPKSCdel_LALA_K447del) (Fc fusion)
- potency of neutralization against D72-53: 2.5 times
